Reference: paper PMC2756758
Where “and” joins values, the source holds several entries; their conditions need not be identical. Equal entries are not always repeated.

Target: T1, Myc-ArPIKfyve^WT (human), Q08AM6
T1 chain: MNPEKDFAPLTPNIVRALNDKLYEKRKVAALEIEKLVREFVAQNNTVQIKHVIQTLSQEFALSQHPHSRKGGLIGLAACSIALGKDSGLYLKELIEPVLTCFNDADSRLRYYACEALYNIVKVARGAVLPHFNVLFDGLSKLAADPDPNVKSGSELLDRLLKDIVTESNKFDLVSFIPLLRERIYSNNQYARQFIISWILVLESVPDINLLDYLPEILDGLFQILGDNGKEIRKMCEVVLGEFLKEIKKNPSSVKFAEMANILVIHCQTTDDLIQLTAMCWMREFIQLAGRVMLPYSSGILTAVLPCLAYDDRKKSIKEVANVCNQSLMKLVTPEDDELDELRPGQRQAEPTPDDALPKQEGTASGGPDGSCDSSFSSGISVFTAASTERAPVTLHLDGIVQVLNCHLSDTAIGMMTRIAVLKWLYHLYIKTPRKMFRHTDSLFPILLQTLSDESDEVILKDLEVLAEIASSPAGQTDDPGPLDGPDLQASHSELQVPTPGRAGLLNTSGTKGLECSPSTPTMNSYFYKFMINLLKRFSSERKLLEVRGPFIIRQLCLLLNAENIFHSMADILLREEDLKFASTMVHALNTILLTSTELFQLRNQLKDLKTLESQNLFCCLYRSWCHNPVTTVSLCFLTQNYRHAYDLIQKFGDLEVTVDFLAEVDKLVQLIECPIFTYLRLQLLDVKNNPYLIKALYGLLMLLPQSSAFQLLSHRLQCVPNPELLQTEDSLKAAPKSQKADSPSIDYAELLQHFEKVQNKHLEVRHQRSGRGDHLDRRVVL
Experiment: cross-linking
Settings: remark: other sources report otherwise

- stoichiometry N: 2 and 3
B1: Myc-ArPIKfyve^WT, Q08AM6 1-782 (natural protein)
chain: MNPEKDFAPLTPNIVRALNDKLYEKRKVAALEIEKLVREFVAQNNTVQIKHVIQTLSQEFALSQHPHSRKGGLIGLAACSIALGKDSGLYLKELIEPVLTCFNDADSRLRYYACEALYNIVKVARGAVLPHFNVLFDGLSKLAADPDPNVKSGSELLDRLLKDIVTESNKFDLVSFIPLLRERIYSNNQYARQFIISWILVLESVPDINLLDYLPEILDGLFQILGDNGKEIRKMCEVVLGEFLKEIKKNPSSVKFAEMANILVIHCQTTDDLIQLTAMCWMREFIQLAGRVMLPYSSGILTAVLPCLAYDDRKKSIKEVANVCNQSLMKLVTPEDDELDELRPGQRQAEPTPDDALPKQEGTASGGPDGSCDSSFSSGISVFTAASTERAPVTLHLDGIVQVLNCHLSDTAIGMMTRIAVLKWLYHLYIKTPRKMFRHTDSLFPILLQTLSDESDEVILKDLEVLAEIASSPAGQTDDPGPLDGPDLQASHSELQVPTPGRAGLLNTSGTKGLECSPSTPTMNSYFYKFMINLLKRFSSERKLLEVRGPFIIRQLCLLLNAENIFHSMADILLREEDLKFASTMVHALNTILLTSTELFQLRNQLKDLKTLESQNLFCCLYRSWCHNPVTTVSLCFLTQNYRHAYDLIQKFGDLEVTVDFLAEVDKLVQLIECPIFTYLRLQLLDVKNNPYLIKALYGLLMLLPQSSAFQLLSHRLQCVPNPELLQTEDSLKAAPKSQKADSPSIDYAELLQHFEKVQNKHLEVRHQRSGRGDHLDRRVVL
